Results on one molecule are retold here after patent US20180021429A1, “ANTICANCER AGENTS OR ANTIMETASTATIC AGENTS USING FSTL1 AND COMBINATION DRUG THEREOF” (PHARMA FOODS INTERNATIONAL CO., LTD., priority 2015, published 2018).

The subject of assay [1] is induction of mesenchymal stem cells (MSCs) by FSTL1. Put plainly: Inhibitory activity against induction of MSC by FSTL1, CD45-negative cells (Examples 6, 8, 12). The class given is cell-based, mouse. Conditions: Example 8, FIG. 6A/36A; FSTL1 20 ng/mL; antibody 10 μg/mL; 8 days. On the procedure: (§1) Mouse bone marrow cells prepared in the same way as in Example 4 were supplemented with 50 ng/mL (final concentration) of FSTL1 and 10 μg/mL of the anti-FSTL1 antibody (#5-2, #5-3, #5-8, #5-10, 45-43, #6-55, or #7-34) or a control antibody anti-DNP antibody and cultured under stimulation. 11 days thereafter, the number of cells was counted while the cells were stained with a PE-Cy5-labeled anti-CD45 antibody (BD Pharmingen/Becton, Dickinson and Company, Cat. No. 555484), and the content of CD45-negative cells reported to generally contain MSCs at a high rate was analyzed by flow cytometry using FACScan to calculate the percentage and number of MSCs per culture (FIG. 5A).
Mouse bone marrow cells prepared in the same way as in Example 4 were supplemented with 20 ng/mL (final concentration) of FSTL1 and 10 μg/mL of the anti-FSTL1 antibody (#5-2, #5-3, #5-8, #5-10, #5-43, #6-55, #8-1, #8-4, #8-7, and #8-8) or a control antibody anti-DNP antibody and cultured under stimulation. 8 days thereafter, the number of cells was counted while the cells were stained with a PE-Cy5-labeled anti-CD45 antibody, and the content of CD45-negative cells was analyzed by flow cytometry using FACScan to calculate the percentage and number of MSCs per culture (FIG. 6A).
Mouse bone marrow cells prepared in the same way as in Example 4 were supplemented with 20 ng/mL (final concentration) of FSTL1 and 10 μg/mL of the anti-FSTL1 antibody (#5-2, #5-8, #6-55, #7-34, #8-1, #8-4, #8-7, or #8-8) or a control antibody anti-DNP antibody and cultured under stimulation. 8 days thereafter, the number of cells was counted while the cells were stained with a PE-Cy5-labeled anti-CD45 antibody, and the content of CD45-negative cells was analyzed by flow cytometry using FACScan to calculate the percentage and number of MSCs per culture (FIG. 7).
as §1, with “35A).” for “5A).”
Mouse bone marrow cells prepared in the same way as in Example 4 were supplemented with 20 ng/mL (final concentration) of FSTL1 and 10 μg/mL of the anti-FSTL1 antibody (#5-2, #5-3, #5-8, #5-10, #5-43, #6-55, #8-1, #8-4, #8-7, and #8-8) or a control antibody anti-DNP antibody and cultured under stimulation. 8 days thereafter, the number of cells was counted while the cells were stained with a PE-Cy5-labeled anti-CD45 antibody, and the content of CD45-negative cells was analyzed by flow cytometry using FACScan to calculate the percentage and number of MSCs per culture (FIG. 36A).
Mouse bone marrow cells prepared in the same way as in Example 4 were supplemented with 20 ng/mL (final concentration) of FSTL1 and 10 μg/mL of the anti-FSTL1 antibody (#5-2, #5-8, #6-55, #7-34, #8-1, #8-4, #8-7, or #8-8) or a control antibody anti-DNP antibody and cultured under stimulation. 8 days thereafter, the number of cells was counted while the cells were stained with a PE-Cy5-labeled anti-CD45 antibody, and the content of CD45-negative cells was analyzed by flow cytometry using FACScan to calculate the percentage and number of MSCs per culture (FIG. 37).

The target of another assay is T1, FSTL1 (Homo sapiens, UniProt Q12841).
T1 sequence (Q12841 21-308): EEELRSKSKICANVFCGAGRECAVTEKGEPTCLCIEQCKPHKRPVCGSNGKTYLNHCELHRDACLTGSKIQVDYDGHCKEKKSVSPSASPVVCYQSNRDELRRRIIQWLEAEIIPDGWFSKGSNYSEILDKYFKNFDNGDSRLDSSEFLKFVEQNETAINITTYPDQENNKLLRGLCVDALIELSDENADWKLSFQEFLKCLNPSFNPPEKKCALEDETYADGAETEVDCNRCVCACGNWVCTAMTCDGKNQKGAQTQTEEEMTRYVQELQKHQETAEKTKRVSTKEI
The experiment in a line: Inhibition of MSC induction by FSTL1 in mouse bone marrow cells, CD45-negative cells (Examples 6, 8, 12). The format is cell-based. Further details: purchased R&D Systems, Inc. 1694-FN-050. Conditions: Example 8; FSTL1 20 ng/mL, antibody 10 μg/mL, 8 days. The protocol:
as §1, with “CD45− negative” for “CD45-negative”, “67A).” for “5A).”
Mouse bone marrow cells prepared in the same way as in Example 4 were supplemented with 20 ng/mL (final concentration) of FSTL1 and 10 μg/mL of the anti-FSTL1 antibody (#5-2, #5-3, #5-8, #5-10, #5-43, #6-55, #8-1, #8-4, #8-7, and #8-8) or a control antibody anti-DNP antibody and cultured under stimulation. 8 days thereafter, the number of cells was counted while the cells were stained with a PE-Cy5-labeled anti-CD45 antibody, and the content of CD45− negative cells was analyzed by flow cytometry using FACScan to calculate the percentage and number of MSCs per culture (FIG. 68A).
Mouse bone marrow cells prepared in the same way as in Example 4 were supplemented with 20 ng/mL (final concentration) of FSTL1 and 10 μg/mL of the anti-FSTL1 antibody (#5-2, #5-8, #6-55, #7-34, #8-1, #8-4, #8-7, or #8-8) or a control antibody anti-DNP antibody and cultured under stimulation. 8 days thereafter, the number of cells was counted while the cells were stained with a PE-Cy5-labeled anti-CD45 antibody, and the content of CD45− negative cells was analyzed by flow cytometry using FACScan to calculate the percentage and number of MSCs per culture (FIG. 69).

B1: #8-8: chicken-mouse chimeric anti-FSTL1 antibody clone; variable regions SEQ ID NO: 803 (light), 805 (heavy) (antibody, V domains shown)
VH: AVTLDESGGGLQTPGGALSLVCKGSGFTFSSFNMFWVRQAPGKGLEWVAGIGKDGVPKYGAAVDGRATISKDNGQSTMRLQLNNLRAEDTGTYYCAKAAGGCSYGWCGAYTGDIDTWGHGTEVIVSS
VL: ASTQPSSVSANPGEAVKITCSGGSGSYYGWYQQKSPGSAPVTVIYNNNQRPSDIPSRFSGSKSGSTATLTITGVQVEDEAVYFCGGYDSSTGHGGIFGAGTTLTVL
modifications: mouse constant regions
As to B1, the “inhibitory activity against the expansion of CD45-negative cells by FSTL1” value (in assay [1]; with FSTL1) was “Inhibitory activity was confirmed” in each case.
